In patent US6905849B1, “Process for preparing clavam derivatives by using polypeptides having β-lactam synthetase activity” (SmithKline Beecham plc, priority 1998, dated 2005):

Test: Assay for conversion of compound (III) to compound (IV) by protein extracts, HPLC detection
Format: biochemical, Streptomyces clavuligerus
Conditions: recombinant orf3 protein from E. coli BL21(DE3)/pBLS3; ATP, Mg(AcO)2, MOPS pH 7.4; 37 °C, 15 minutes; underivatised and benzoin-derivatised HPLC
Protocol: The crude extracts prepared from the recombinant E. coli containing the pBLS3vector (example 5) and the purified protein product (example 6) were tested for the ability to catalyse the conversion of the compound (III) to compound (IV). Both compound (III) and compound (IV) were prepared synthetically following previously published methods (Baldwin et al J. Chem Soc. Chem Comm. 1993 p500-2 and Elson et al J. Chem Soc. Chem Comm. 1993 p1212-4). Protein extracts were assayed for the conversion of compound (III) to compound (IV) under the following conditions: [table] The above mixture was heated at 37 ° C. for 15 minutes before being analysed by the HPLC methods described below. This assay was carried out using the following equipment and conditions • Waters 746 data module • Waters 600E system controller • Waters 712 WISP injector • Waters 848 tunable absorbance detector The protocol used was Kai et al. (M. Kai, T. Miyazaki, M. Yamaguchi, Y Ohkura, J. Chromatog. 268, 417-424, 1983) which assays for compounds containing guanidino functionalities using a fluorescence detector. […]

B1: orf3 product: polypeptide encoded by orf3 of the Streptomyces clavuligerus clavulanic acid gene cluster (SEQ ID NO:2), 56 KDa, β-lactam synthetase (protein, listed as Streptomyces clavuligerus)
chain: GAPVLPAAFGFLASARTGGGRAPGPVFATRGSHTDIDTPQGERSLAATLVHAPSVAPDRAVARSLTGAPTTAVLAGEIYNRDELLSVLPAGPAPEGDAELVLRLLERYDLHAFRLVNGRFATVVRTGDRVLLATDHAGSVPLYTCVAPGEVRASTEAKALAAHRDPKGFPLADARRVAGLTGVYQVPAGAVMDIDLGSGTAVTHRTWTPGLSRRILPEGEAVAAVRAALEKAVAQRVTPGDTPLVVLSGGIDSSGVAACAHRAAGELDTVSMGTDTSNEFREARAVVDHLRTRHREITIPTTELLAQLPYAVWASESVDPDIIEYLLPLTALYRALDGPERRILTGYGADIPLGGMHREDRLPALDTVLAHDMATFDGLNEMSPVLSTLAGHWTTHPYWDREVLDLLVSLEAGLKRRHGRDKWVLRAAMADALPAETVNRPKLGVHEGSGTTSSFSRLLLDHGVAEDRVHEAKRQVVRELFDLTVGGGRHPSEVDTDDVVRSVADRTARGAA
- β-lactam synthetase activity: conversion of compound (III) to compound (IV): catalysis the conversion of compound (III) to compound (IV)
